From article PMC5385555, “Molecular basis for the behavioral effects of the odorant degrading enzyme Esterase 6 in Drosophila” (Scientific Reports, 2017) come the findings set out here.

In general, Km refers to the substrate concentration at which the rate is half of its maximum.

Substrate in data set [1]: CC(=O)Oc1ccc([N+](=O)[O-])cc1
The experiment in a line: UV/vis substrate-loss assay. Conditions: Tris-HCl pH 8.0, 25 °C, 5% ethanol (Table S1), Fig. S1 without ethanol. It is filed as biochemical, Drosophila melanogaster.

Substrate in data set [2]: CC(=O)Oc1ccc2ccccc2c1
The data set can be described thus: UV/vis substrate-loss assay. Particulars: Tris-HCl pH 8.0, 25 °C, 5% ethanol. It is filed as biochemical, Drosophila melanogaster.

B1: EST6 (wildtype EST6, EST6-WT) (Drosophila melanogaster) (protein)
chain: SDTDDPLLVQLPQGKLRGRDNGSYYSYESIPYAEPPTGDLRFEAPEPYKQKWSDIFDATKTPVACLQWDQFTPGANKLVGEEDCLTVSVYKPKNSKRNSFPVVAHIHGGAFMFGAAWQNGHENVMREGKFILVKISYRLGPLGFVSTGDRDLPGNYGLKDQRLALKWIKQNIASFGGEPQNVLLVGHSAGGASVHLQMLREDFGQLARAAFSFSGNALDPWVIQKGARGRAFELGRNVGCESAEDSTSLKKCLKSKPASELVTAVRKFLIFSYVPFAPFSPVLEPSDAPDAIITQDPRDVIKSGKFGQVPWAVSYVTEDGGYNAALLLKERKSGIVIDDLNERWLELAPYLLFYRDTKTKKDMDDYSRKIKQEYIGNQRFDIESYSELQRLFTDILFKNSTQESLDLHRKYGKSPAYAYVYDNPAEKGIAQVLANRTDYDFGTVHGDDYFLIFENFVRDVEMRPDEQIISRNFINMLADFASSDNGSLKYGECDFKDNVGSEKFQLLAIYIDGCQNRQHVEFP
notes: wildtype, baculovirus expressed, semi-purified; N-terminal signal peptide of 63 bp (21 residues) in the gene
As for B1, in data set [1], the Michaelis-Menten constant (Km) was 269 ± 18 µM and the kcat is given as 105 ± 2 s-1 (head prints M.s-1). In data set [2], the Km was found to be 121 ± 6 µM and the kcat was 135 ± 2 s-1 (head prints M.s-1).
